* marks the point of attachment. Acryloyl = C=CC(=O)*
Experiment: Circular dichroism (CD) spectroscopy of α-helix secondary structure
Assay type: physicochemical
Details: 25° C.
Description: CD spectra were recorded using a Chirascan circular dichroism spectrometer equipped with a Peltier temperature controller (Applied Photophysics Ltd.). The CD spectra of peptides were recorded at 190-260 nm.
The temperature was 25° C. and the peptide concentration was 6 μM.
The α-helix peptide substituted with an acryloyl group prepared in Preparation Example 1 (bisAAm-p53) was dissolved in a 10% HFIP solution (based on final concentration). After mixing with […] acrylamide, a peptide-polymer conjugate was prepared through free radical induced polymerization by adding ammonium persulfate (APS) and N,N,N′,N′-tetramethylethylenediamine (TEMED). The prepared 9 μM α-helix peptide multimer was diluted with a 0.2% HIFP solution.
Before CD spectrum measurement, HFIP was completely evaporated from the samples through centrifugation.

Preparation Example 1: p53-derived peptide Ac-QSQQTFKNLWRLLKQN-NH2 with both lysine ε-amines (i, i+7) acryloylated; FIG. 16A (Ac-QSQQTFK(Acryloyl)NLWRLLK(Acryloyl)QN-NH2; SMILES C=CC(=O)NCCCC[C@H](NC(=O)[C@H](CC(C)C)NC(=O)[C@H](CC(C)C)NC(=O)[C@H](CCCNC(=N)N)NC(=O)[C@H](Cc1c[nH]c2ccccc12)NC(=O)[C@H](CC(C)C)NC(=O)[C@H](CC(N)=O)NC(=O)[C@H](CCCCNC(=O)C=C)NC(=O)[C@H](Cc1ccccc1)NC(=O)[C@@H](NC(=O)[C@H](CCC(N)=O)NC(=O)[C@H](CCC(N)=O)NC(=O)[C@H](CO)NC(=O)[C@H](CCC(N)=O)NC(C)=O)[C@@H](C)O)C(=O)N[C@@H](CCC(N)=O)C(=O)N[C@@H](CC(N)=O)C(N)=O)
α-helix secondary structure (CD spectrum) (10% HFIP solution (HFIP:water=1:9, v/v), peptide 6 μM (FIG. 4)): stabilized | α-helix secondary structure (CD spectrum) (distilled water, peptide 6 μM (FIG. 3)): not stabilized but unfolded
